This series has as its target T1, Cdk9;Pch1 (Schizosaccharomyces …, UniProt Q96WV9;O74627 1-591;1-342, |).
T1 sequence 1: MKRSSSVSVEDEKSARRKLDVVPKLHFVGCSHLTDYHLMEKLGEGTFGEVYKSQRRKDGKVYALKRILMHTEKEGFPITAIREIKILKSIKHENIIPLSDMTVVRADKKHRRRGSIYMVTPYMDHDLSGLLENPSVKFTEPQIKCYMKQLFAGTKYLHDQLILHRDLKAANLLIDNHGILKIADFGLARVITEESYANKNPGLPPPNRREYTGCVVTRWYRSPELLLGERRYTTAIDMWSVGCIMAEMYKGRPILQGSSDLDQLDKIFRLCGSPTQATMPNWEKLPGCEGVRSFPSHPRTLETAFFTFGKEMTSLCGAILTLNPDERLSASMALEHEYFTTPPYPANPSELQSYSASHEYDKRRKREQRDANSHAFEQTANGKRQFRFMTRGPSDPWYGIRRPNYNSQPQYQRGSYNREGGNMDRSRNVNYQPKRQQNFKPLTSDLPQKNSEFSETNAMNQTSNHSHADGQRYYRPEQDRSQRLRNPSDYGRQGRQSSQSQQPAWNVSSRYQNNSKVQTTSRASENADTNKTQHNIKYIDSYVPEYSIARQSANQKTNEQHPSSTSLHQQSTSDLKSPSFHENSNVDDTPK
T1 sequence 2: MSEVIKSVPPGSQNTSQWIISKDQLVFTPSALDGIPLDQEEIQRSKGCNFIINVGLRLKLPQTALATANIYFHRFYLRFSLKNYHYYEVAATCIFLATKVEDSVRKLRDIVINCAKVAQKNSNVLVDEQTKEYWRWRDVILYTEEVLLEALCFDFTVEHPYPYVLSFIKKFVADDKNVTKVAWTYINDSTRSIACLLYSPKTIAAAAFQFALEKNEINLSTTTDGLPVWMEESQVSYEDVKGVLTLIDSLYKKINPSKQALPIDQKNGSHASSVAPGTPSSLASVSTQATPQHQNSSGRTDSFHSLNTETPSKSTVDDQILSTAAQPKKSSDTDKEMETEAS
The experiment in a line: fluorescence anisotropy; 8 nM RNA; four-parameter logistic fit with Hill slope; 20 mM HEPES 7.5, 150 mM NaCl, 0.5 mM MgCl2, 0.5 mM Mg(OAc)2, 1 mM 2-mercaptoethanol; 20 min at RT, read at 25 C. The note with it: protein: recombinant;recombinant; tags: none stated;N-terminal His-TEV, His-tag cleaved with TEV; copies: 1;1; single strand; heated 5 min at 95 C before use.

The term Kd denotes the free concentration of one partner at which half of the binding sites on the other are occupied at equilibrium, for simple one-to-one binding.

For the molecule AUUAGUAAAAUAUAUGCAUAAAGACCAGGC (ssRNA) [generic FAM-labeled RNA oligo], the Kd was 47 ± 1.7 nM.

Values taken from publication PMC7397868, “System-wide analyses of the fission yeast poly(A)+ RNA interactome reveal insights into organization and function of RNA–protein complexes”.
